Measured values reported in paper PMC11401227, “The structure of DNA methyltransferase DNMT3C reveals an activity-tuning mechanism for DNA methylation” (The Journal of Biological Chemistry, 2024).

Biological target: the molecule itself
Assay: crystal structure; DNMT3C MTase domain-hDNMT3L C-terminal domain covalently bound to a 25-mer ZpG/CpG DNA, with SAH; 3.2 Å; crystals grown at 4 °C

B1: mouse DNMT3C MTase domain (residues 456–740) (domain or fragment, UniProt P0DOY1 456-740, looked up)
chain: AAKRRPIRVLSLFDGIATGYLVLKELGIKVEKYIASEVCAESIAVGTVKHEGQIKYVDDIRNITKEHIDEWGPFDLVIGGSPCNDLSCVNPVRKGLFEGTGRLFFEFYRLLNYSCPEEEDDRPFFWMFENVVAMEVGDKRDISRFLECNPVMIDAIKVSAAHRARYFWGNLPGMNRPVMASKNDKLELQDCLEFSRTAKLKKVQTITTKSNSIRQGKNQLFPVVMNGKDDVLWCTELERIFGFPEHYTDVSNMGRGARQKLLGRSWSVPVIRHLFAPLKDHFACE
notes: DNA methyltransferase DNMT3C, mouse, MTase domain, residues 456-740; synthetic DNA fragment; The His6-SUMO tag was still on the chain in the Ni-NTA co-purification step and was removed by ULP1 afterwards; also called DNMT3C methyltransferase domain; WT DNMT3C; source: E. coli BL21 (DE3) RIL, co-expressed with DNMT3L, purified (Ni-NTA, Heparin, SEC); not shown: His6-SUMO, N-terminal, cleaved
Does B1 bind?
Result: binds
